Reference: US11466260B2, “Thermostable haloarchaeal inorganic pyrophosphatase” (UNIVERSITY OF FLORIDA RESEARCH FOUNDATION, INCORPORATED, priority 2015, dated 2022)
Entries after “also recorded” stand apart in the source; their conditions may differ. Like-named read-outs stand apart in the source and are kept apart here.

How the values were obtained:
HvPPA = biological target: T1, HvPPA (Haloferax volcanii, UniProt D4GT97); assay: Sodium fluoride-based inhibition of HvPPA; assay type: biochemical
T1 construct: thrombin-cleavage site (linker between His6 and HvPPA) (N); made in house; host or cells: Haloferax volcanii H26-pJAM2920
T1 sequence (D4GT97 1-177): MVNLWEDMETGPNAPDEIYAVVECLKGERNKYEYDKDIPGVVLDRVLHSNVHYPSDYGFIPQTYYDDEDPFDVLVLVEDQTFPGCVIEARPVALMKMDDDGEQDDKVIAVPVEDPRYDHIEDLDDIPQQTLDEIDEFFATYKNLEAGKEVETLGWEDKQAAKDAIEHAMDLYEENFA
Method: A) HvPPA (1.3 μg) was assayed in 1 ml reaction volume containing 1 mM PPi, 10 mM MgCl2, 3 M NaCl and 20 mM Tris-Cl buffer pH 7.5 supplemented with NaF as indicated. Reactions were monitored for 15 min at RT.
HvPPA-mediated hydrolysis of PPi to Pi was determined spectrophotometrically. Reagents were in nanopure water (Barnstead/Thermolyne Nanopure lab water system). Sodium pyrophosphate tetrabasic decahydrate (Sigma Aldrich) was used as a substrate. For kinetic measurements, reaction mixtures (500 μl total) contained 0.5-1 μg HvPPA and 1 mM PPi in high-salt buffer (3 M NaCl and 20 mM Tris-HCl, pH 8.5). Reactions were incubated at 42° C. for 1-3 min. Orthophosphate levels were determined by malachite green assay. Briefly, 2.5 ml of 14% (w/v) (NH4)2MoO4 and 0.2 ml of 11% (v/v) TWEEN 20 ® (Polyoxyethylene sorbitan monolaurate) were added into a 10-ml color reagent I (containing 1.67 ml conc. sulfuric acid, 8.33 ml nanopure H2O, and 12.22 mg malachite green). In triplicate, 50 μl of the color reagent was mixed with 200 μl of the reaction mixture and incubated at room temperature for 10 min. The formation of (MG^+)(H2PMo12O40) (where MG^+ represents ionized malachite green) was monitored at A630. A less sensitive malachite green assay was also used in which reaction aliquots (50 μl) were mixed with 250 μl color reagent II and 10 μl 1.5% (v/v) TWEEN 20 ® (Polyoxyethylene sorbitan monolaurate) in triplicate; product formation was immediately monitored at A650. Color reagent II was generated by mixing 1 volume of 4.2% (w/v) (NH4)2MoO4 in 5 N HCl with 3 volumes of 0.2% (w/v) malachite green; after 30 minutes, the solution was filtered with a 0.45 μm filter and stored at room temperature. Freeze-dried KH2PO4 was used as the standard. Assay mixtures with PPi minus HvPPA were used for individual background subtraction. All proteins used in this assay were buffer-exchanged with Tris-high-salt buffer in nanopure H2O prior to use. All experiments were performed in triplicate and the mean±standard deviation (S.D.) was calculated.

[1] = assay type: physicochemical, Haloferax volcanii
Method: (§1) FIGS. 6A-6D. Effect of salt, solvent and temperature on Haloferax volcanii inorganic phyrophosphatase (HvPPA). A) HvPPA thermostability. HvPPA was incubated at 42° C. and 65° C. as indicated with enzyme at 0.093 mg/ml of buffer (20 mM Tris-Cl pH 8, 2.5 mM MgCl2 and 3 M NaCl). HvPPA was diluted to 0.28 μg per 100 μl buffer (with MgCl2 increased to 10 mM) and assayed by addition of 1 mM PPi substrate (10 min, RT). Activity is % relative to samples incubated on ice. B) HvPPA stability in 50% (v/v) solvent. HvPPA was incubated for 2 h (on ice) at 0.47 mg/ml buffer (20 mM Tris-Cl pH 8 and 2 M NaCl) supplemented with solvent as indicated. HvPPA was diluted to 2.4 μg per 100 μl buffer (20 mM Tris-Cl pH 8, 2.5 mM MgCl2 and 2 M NaCl) and assayed by addition of 50 μM PPi substrate (10 min, RT). Activity is % relative to samples incubated with no solvent. C) HvPPA activity in 25% (v/v) solvent. Reactions were 500 μl with 2.8 μg HvPPA, 1.5 M NaCl, 1.5 mM PPi, 10 mM MgCl2. Reaction occurred at 10 minutes at RT. D) HvPPA stability in salt. HvPPA was incubated for 2 h (on ice) at 0.3 mg per ml of buffer (20 mM Tris-Cl pH 8) supplemented with NaCl at the concentrations indicated. HvPPA was diluted to 0.87 μg per 100 μl reaction buffer as in FIG. 6B. Activity is % relative to samples incubated in buffer supplemented with 3M NaCl.

[2] = PPi assay: HvPPA-mediated hydrolysis of PPi to Pi (malachite green); assay type: biochemical, Haloferax volcanii; conditions: 25° C.
[3] = Coupled assay of ubiquitin-like protein adenylation; assay type: biochemical, Haloferax volcanii; conditions: UbaA and HvPPA with ATP and SAMP1, 2 M NaCl, 42° C.
Method: FIGS. 7A-7B. on Haloferax volcanii inorganic phyrophosphatase (HvPPA) activity solvent and coupled adenylation assay at high temperature and low water activity. A) Schematic of the coupled assay. Adenylation of the ubiquitin-like SAMP by the E1-like enzyme (UbaA) was monitored by HvPPA mediated hydrolysis of the PPi (P2O7^4−) by-product to 2 Pi (2 moles HPO4^2−) at 50° C. B) Generation of Pi correlated with the addition of ATP, UbaA, HvPPA and SAMP1 to the assay buffer. ΔGG, C-terminal diglycine residue deletion.
UbaA-mediated hydrolysis of ATP to AMP and PPi in the presence of the ubiquitin-like SAMP1 was monitored by coupled assay with HvPPA. Proteins were buffer-exchanged with HEPES-salt buffer in Nanopure H2O prior to use. Reaction mixtures (500 μl total) containing 20 μM UbaA, 20 μM SAMP1, 0.5 μM HvPPA, 2.5 mM nucleotide, 2.5 mM MgCl2, 50 μM ZnCl2 in high-salt buffer (2 M NaCl and 50 mM HEPES in Nanopure H2O, pH 7.5) were incubated at 37-42° C. for 1 h. Nucleotides were ATP, AMP, ADP, AMP-PNP, CTP, GTP, TTP and UTP. Proteins were removed by Ultracel-3 centrifugal filtration prior to determining orthophosphate levels by malachite green assay modified as described above. Assay mixtures with nucleotide alone were used for individual background subtraction.

[4] = PPi assay: HvPPA-mediated hydrolysis of PPi to Pi (malachite green); assay type: biochemical, Haloferax volcanii; conditions: for Temp., optimum: 20 mM Tris-Cl pH 8, 3 M NaCl; for Cation-dependence: EDTA-treated enzyme, 20 mM Tris-Cl pH 8, 2 M NaCl
Method: FIGS. 4A-4D. Effect of pH, temperature, salt and divalent cations on Haloferax volcanii inorganic phyrophosphatase (HvPPA) activity. A-C) HvPPA was equilibrated for 10 min at the pH, temperature, and NaCl concentrations indicated prior to the addition of PPi substrate (100 μM). MgCl2 (10 mM) was included in the activity assays. For pH optimum, assays were supplemented with 3 M NaCl and included 20 mM buffers of sodium acetate at pH 4-5, MES at pH 6-6.5, Tris-Cl at pH 7-9 and CAPS at pH 10. For temperature optimum assays, reactions were in 20 mM Tris-Cl pH 8 supplemented with 3 M NaCl. For salt optimum, HvPPA was diluted from 20 mM Tris-Cl pH 8 containing 3 m NaCl into the same buffer with NaCl concentrations as indicated. D) To test the influence of cations, HvPPA was dialyzed sequentially against 500 ml of buffer (20 mM Tris-Cl pH 8, 2 M NaCl and 1 μM EDTA) (4 h at 4° C.) and the same buffer with EDTA omitted (4 h at 4° C.). Reactions for panel D contained HvPPA (0.93 μg), 20 mM Tris-Cl pH 8, 2 M NaCl and divalent metal at the concentration indicated. Metals used were: CaCl2.2H2O, ZnCl2, CoCl2.6H2O, MnCl2.4H2O, NiCl2.6H2O and MgCl2.6H2O. Reactions were monitored for 10 min at RT unless otherwise indicated.
as §1
PPA activity monitored in Tris-salt buffer at 37° C. and pH 8.5 with 0.1 mM PPi for 10 min. U, units defined as μmol product/min. SD, standard deviation of three experiments.
HvPPA-mediated hydrolysis of PPi to Pi was determined spectrophotometrically. Reagents were in nanopure water (Barnstead/Thermolyne Nanopure lab water system). Sodium pyrophosphate tetrabasic decahydrate (Sigma Aldrich) was used as a substrate. For kinetic measurements, reaction mixtures (500 μl total) contained 0.5-1 μg HvPPA and 1 mM PPi in high-salt buffer (3 M NaCl and 20 mM Tris-HCl, pH 8.5). Reactions were incubated at 42° C. for 1-3 min. Orthophosphate levels were determined by malachite green assay. Briefly, 2.5 ml of 14% (w/v) (NH4)2MoO4 and 0.2 ml of 11% (v/v) TWEEN 20 ® (Polyoxyethylene sorbitan monolaurate) were added into a 10-ml color reagent I (containing 1.67 ml conc. sulfuric acid, 8.33 ml nanopure H2O, and 12.22 mg malachite green). In triplicate, 50 μl of the color reagent was mixed with 200 μl of the reaction mixture and incubated at room temperature for 10 min. The formation of (MG^+)(H2PMo12O40) (where MG^+ represents ionized malachite green) was monitored at A630. A less sensitive malachite green assay was also used in which reaction aliquots (50 μl) were mixed with 250 μl color reagent II and 10 μl 1.5% (v/v) TWEEN 20 ® (Polyoxyethylene sorbitan monolaurate) in triplicate; product formation was immediately monitored at A650. […]

[5] = cited from earlier work; for Vmax: highest reported

F [NaF, sodium fluoride]
Ki (HvPPA; pH 7.5): 200 µM
Ki (HvPPA; pH 8.5): 1800 µM

B1: HvPPA: Class A type inorganic pyrophosphatase from Haloferax volcanii, amino acid sequence of SEQ ID NO: 2 (protein, listed as Haloferax volcanii)
chain: MVNLWEDMETGPNAPDEIYAVVECLKGERNKYEYDKDIPGVVLDRVLHSNVHYPSDYGFIPQTYYDDEDPFDVLVLVEDQTFPGCVIEARPVALMKMDDDGEQDDKVIAVPVEDPRYDHIEDLDDIPQQTLDEIDEFFATYKNLEAGKEVETLGWEDKQAAKDAIEHAMDLYEENFA
stability when stored in salt [1]: more stable
activity remained ([1]; after 2 h at 42° C., relative to samples on ice): 82%
Thermal inactivation (half-life) ([1]; buffer, pH 8): 2 h
Vmax [2]: 53 U · mg^−1 (25° C.)
Hill coefficient(s) (Mg^2+) ([2]; Mg^2+): 2.62
Hill coefficient(s) (PPi) ([2]; PPi): 1.4 (PPi, 25° C.)
Pi detected in coupled adenylation assay [3]: Significant levels of Pi were detected
Substrate(s) hydrolyzed [4]: PPi
hydrolysis of nucleoside triphosphate (ATP, TTP, GTP or CTP) or nucleoside diphosphate (ADP) [4]: did not hydrolyze detectable levels
kcat [4]: 1050 s⁻¹
activity of restored EDTA-treated enzyme versus untreated control ([4]; 2.5 mM MgCl2): half the activity of the untreated control
Temp., optimum [4]: 42 °C
Temp., optimum ([4]; listed as HvPPA hexamers): 42 °C
effect of NaCl on relative activity ([4]; 0.025 to 3 M NaCl): little, if any, effect; also recorded: fully active
optimal activity, basic pH ([4]; 3 M NaCl, 10 mM MgCl2, 100 μM PPi, RT): 8-9 pH
activity in organic solvent compared to no solvent controls ([4]; 25% (v/v) DMSO or DMF): 63-94%
activity in organic solvent compared to no solvent controls ([4]; 25% (v/v) methanol or ethanol): 110-150%
pH, optimum ([4]; 25° C.): pH 8.5 (25° C.)
Vmax ([4]; 25° C., PPi substrate): 53 U/mg
Vmax ([4]; 42° C.): 465 U · mg^−1
Vmax ([4]; 42° C., PPi substrate): 465 U/mg
Cation-dependence [4]: partially restored by supplementation of the enzyme with Mn^2+ or Mg^2+ ions
Cation-dependence ([4]; listed as Haloferax volcanii): Mg^2+, Mn^2+
Mg^2+ concentration for optimal PPi hydrolyzing activity ([4]; Mg^2+ added to reaction buffer): 20 to 40 mM
Hill coefficient(s) (Mg^2+) ([4]; Mg^2+, 25° C.): 2.6 (Mg^2+, 25° C.)
Hill coefficient(s) (PPi) ([4]; PPi, 42° C.): 2.1 (PPi, 42° C.)
effect of removal of divalent cations ([4]; dialysis against the metal chelator EDTA): inactivated
Km ([4]; for Mg^2+, 25° C., listed as Haloferax volcanii, read-out: Km Mg^2+): 13400 µM
Km ([4]; for Mg^2+, 25° C., read-out: Km Mg^2+): 13000 µM
Km ([4]; for PPi, 25° C., read-out: Km PPi): 260 µM
Km ([4]; for PPi, 42° C., read-out: Km PPi): 550 µM
Inhibitors (HvPPA): NaF

B2: Pyrococcus horikoshii: Class A type inorganic pyrophosphatase of Pyrococcus horikoshii (protein, UniProt O59570 1-178, looked up)
Inorganic pyrophosphatase: MNPFHDLEPGPNVPEVVYALIEIPKGSRNKYELDKETGLLKLDRVLYTPFHYPVDYGIIPRTWYEDGDPFDIMVIMREPTYPLTIIEARPIGLFKMIDSGDKDYKVLAVPVEDPYFKDWKDISDVPKAFLDEIAHFFKRYKELEGKEIIVEGWEGAEAAKREILRAIEMYKEKFGKKE
Vmax ([5]; 60° C.): 930 U · mg^−1
Km ([5]; for Mg^2+, read-out: Km Mg^2+): 300 µM
Hill coefficient(s) ([5]; in words): Cooperative
Substrate(s) hydrolyzed: ADP ([5]; substrate ADP): (2.9%)]
Substrate(s) hydrolyzed: ATP ([5]; substrate ATP): ATP (5.9%); ADP
Substrate(s) hydrolyzed: P3 ([5]; substrate P3): 2.7%

B3: Thermoplasma acidophilum: Class A type inorganic pyrophosphatase of Thermoplasma acidophilum (protein, UniProt P37981 1-179, looked up)
Inorganic pyrophosphatase: MESFYHSVPVGPKPPEEVYVIVEIPRGSRVKYEIAKDFPGMLVDRVLYSSVVYPVDYGLIPRTLYYDGDPMDVMVLISQPTFPGAIMKVRPIGMMKMVDQGETDNKILAVFDKDPNVSYIKDLKDVNAHLLDEIANFFSTYKILEKKETKVLGWEGKEAALKEIEVSIKMYEEKYGKKN
Vmax ([5]; 56° C.): 1100 U · mg^−1
Hill coefficient(s) (Mg^2+) [5]: 1.8 (Mg^2+)
Km ([5]; for Mg^2+, read-out: Km Mg^2+): 1700 µM
Km ([5]; for PPi, read-out: Km PPi): 7 µM

B4: Methanothermobacter thermautotrophicus: Class A type inorganic pyrophosphatase of Methanothermobacter thermautotrophicus (Methanobacterium thermoautotrophicum) (protein, UniProt O26363 1-176, looked up)
Inorganic pyrophosphatase: MNLWKDIEPGPSVPEVVYAVVEIPKGSRNKYEYHKDLQAFALDRVLYSAVFYPAEYGIIPRTLYDDGDPMDILVLMDEPTFPGCIIESRPIGLLRMIDGGDQDDKILAVPVADPHFADVKDISDIPEHNLKEIANFFETYKKLEGKKTETLGWEGAEKAFEAVNHSIELYRKKYME
pH, optimum ([5]; 60° C.): pH 7.7 (60° C.)
Hill coefficient(s) (Mg^2+) [5]: 2.0 (Mg^2+)
Hill coefficient(s) (PPi) ([5]; PPi): 3.3 (PPi),
Km ([5]; for Mg^2+, read-out: Km Mg^2+): 4900 µM
Km ([5]; for PPi, read-out: Km PPi): 160 µM
Vmax [5]: 570 U · mg^−1
